Substitutions are numbered along the chain they refer to. Numbers in names are those of the source.
T1: Biotin-FcγRIIB (human FcγRIIB, Sino Biological) (human, UniProt P31994 43-217, limits assumed, biotin-labeled)
T1 construct: Used at 1 µg/ml with Streptavidin-APC for flow cytometry and sorting; also called CD32b
T1 sequence (looked up): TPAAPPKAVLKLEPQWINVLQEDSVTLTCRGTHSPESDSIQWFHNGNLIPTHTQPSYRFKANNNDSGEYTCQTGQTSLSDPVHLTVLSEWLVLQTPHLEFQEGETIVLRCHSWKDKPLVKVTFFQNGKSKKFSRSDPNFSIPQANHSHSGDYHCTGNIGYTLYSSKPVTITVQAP

T2: Biotin-FcγRIIB (human, UniProt P31994 43-217, limits assumed, biotin label)
T2 construct: Soluble labelled protein used to stain and sort the display cells; also called human FcγRIIB; CD32b
T2 sequence (looked up): T1 sequence (looked up)

B1: human IgG2 anti-mouse CD40 surface displayed antibody, S267E/P271V (antibody, name in EU numbering)
light chain (with the P2A rest): DTVLTQSPALAVSPGERVTISCRASDSVSTLMHWYQQKPGQQPKLLIYLASHLESGVPARFSGSGSGTDFTLTIDPVEADDTATYYCQQSWNDPWTFGGGTKLELKRTVAAPSVFIFPPSDEQLKSGTASVVCLLNNFYPREAKVQWKVDNALQSGNSQESVTEQDSKDSTYSLSSTLTLSKADYEKHKVYACEVTHQGLSSPVTKSFNRGECGSGATNFSLLKQAGDVEENPG
heavy chain: EVQLVESDGGLVQPGRSLKLPCAASGFTFSDYYMAWVRQAPTKGLEWVASISYDGSSTYYRDSVKGRFTISRDNAKSTLYLQMDSLRSEDTATYYCGRHSSYFDYWGQGVMVTVSSASTKGPSVFPLAPCSRSTSESTAALGCLVKDYFPEPVTVSWNSGALTSGVHTFPAVLQSSGLYSLSSVVTVPSSNFGTQTYTCNVDHKPSNTKVDKTVERKCCVECPPCPAPPVAGPSVFLFPPKPKDTLMISRTPEVTCVVVDVEHEDVEVQFNWYVDGVEVHNAKTKPREEQFNSTFRVVSVLTVVHQDWLNGKEYKCKVSNKGLPAPIEKTISKTKGQPREPQVYTLPPSREEMTKNQVSLTCLVKGFYPSDIAVEWESNGQPENNYKTTPPMLDSDGSFFLYSKLTVDKSRWQQGNVFSCSVMHEALHNHYTQKSLSLSPGKLEPPPSTVSNMATVAVLVVLGAAIVTGAVVAFVMKMRRRNTGGKGGDYALAPGSQTSDLSLPDCKVMVHDPHSLA
notes: m1 with these Fc mutations (Eu numbering); copies: 2 + 2
B2: human IgG2 anti-mouse CD40 surface displayed antibody, S267E/P271W (antibody, name in EU numbering)
light chain (with the P2A rest): B1 light chain (with the P2A rest)
heavy chain: B1 heavy chain with V266W
notes: as for B1
B3: human IgG2 anti-mouse CD40 surface displayed antibody, S267E/P271Y (antibody, name in EU numbering)
light chain (with the P2A rest): B1 light chain (with the P2A rest)
heavy chain: B1 heavy chain with V266Y
notes: as for B1
B4: human IgG2 anti-mouse CD40 surface displayed antibody, S267G (antibody, name in EU numbering)
light chain (with the P2A rest): B1 light chain (with the P2A rest)
heavy chain: B1 heavy chain with E262G, V266P
notes: m1 with this Fc mutation (Eu numbering); copies: 2 + 2
B5: human IgG2 anti-mouse CD40 surface displayed antibody, S267M (antibody, name in EU numbering)
light chain (with the P2A rest): B1 light chain (with the P2A rest)
heavy chain: B1 heavy chain with E262M, V266P
notes: as for B4
B6: human IgG2 anti-mouse CD40 surface displayed antibody, S267M/P271C (antibody, name in EU numbering)
light chain (with the P2A rest): B1 light chain (with the P2A rest)
heavy chain: B1 heavy chain with E262M, V266C
notes: as for B1
B7: human IgG2 anti-mouse CD40 surface displayed antibody, S267M/P271G (antibody, name in EU numbering)
light chain (with the P2A rest): B1 light chain (with the P2A rest)
heavy chain: B1 heavy chain with E262M, V266G
notes: as for B1
B8: human IgG2 anti-mouse CD40 surface displayed antibody, S267Q (antibody, name in EU numbering)
light chain (with the P2A rest): B1 light chain (with the P2A rest)
heavy chain: B1 heavy chain with E262Q, V266P
notes: as for B4
B9: human IgG2 anti-mouse CD40 surface displayed antibody, V266A/P271C (antibody, name in EU numbering)
light chain (with the P2A rest): B1 light chain (with the P2A rest)
heavy chain: B1 heavy chain with V261A, E262S, V266C
notes: as for B1
B10: human IgG2 anti-mouse CD40 surface displayed antibody, V266A/P271G (antibody, name in EU numbering)
light chain (with the P2A rest): B1 light chain (with the P2A rest)
heavy chain: B1 heavy chain with V261A, E262S, V266G
notes: as for B1
B11: human IgG2 anti-mouse CD40 surface displayed antibody, V266G/P271C (antibody, name in EU numbering)
light chain (with the P2A rest): B1 light chain (with the P2A rest)
heavy chain: B1 heavy chain with V261G, E262S, V266C
notes: as for B1
B12: human IgG2 anti-mouse CD40 surface displayed antibody, H268D/S298L/L328W (antibody, name in EU numbering)
light chain (with the P2A rest): B1 light chain (with the P2A rest)
heavy chain: B1 heavy chain with E262S, H263D, V266P, S293L, L323W
notes: As m1 with the Fc mutations
B13: human IgG2 anti-mouse CD40 surface displayed antibody, S239V/V266L/S298L/L328W (antibody, name in EU numbering)
light chain (with the P2A rest): B1 light chain (with the P2A rest)
heavy chain: B1 heavy chain with S234V, V261L, E262S, V266P, S293L, L323W
notes: As m1 with the Fc mutations
B14: human IgG2 anti-mouse CD40 surface displayed antibody, S267V/S298G/L328W (antibody, name in EU numbering)
light chain (with the P2A rest): B1 light chain (with the P2A rest)
heavy chain: B1 heavy chain with E262V, V266P, S293G, L323W
notes: As m1 with the Fc mutations
B15: human IgG2 anti-mouse CD40 surface displayed antibody, S267V/S298L/L328W (antibody, name in EU numbering)
light chain (with the P2A rest): B1 light chain (with the P2A rest)
heavy chain: B1 heavy chain with E262V, V266P, S293L, L323W
notes: As m1 with the Fc mutations
B16: human IgG2 anti-mouse CD40 surface displayed antibody, V266L/L328W (antibody, name in EU numbering)
light chain (with the P2A rest): B1 light chain (with the P2A rest)
heavy chain: B1 heavy chain with V261L, E262S, V266P, L323W
notes: As m1 with the Fc mutations
B17: human IgG2 anti-mouse CD40 surface displayed antibody, V266L/S298L/L328W (antibody, name in EU numbering)
light chain (with the P2A rest): B1 light chain (with the P2A rest)
heavy chain: B1 heavy chain with V261L, E262S, V266P, S293L, L323W
notes: As m1 with the Fc mutations

How the values were obtained:
[1] = target: T1, Biotin-FcγRIIB (human FcγRIIB, Sino …); assay: NGS after FACS sort of 3T3-displayed Library2 for biotin-FcγRIIB binding
Biotin-FcγRIIB = target: T2, Biotin-FcγRIIB; assay: NGS of 3T3 display library Cmix flow-sorted for FcγRIIB binding

| Enrichment factor (percentage after sorting/percentage before sorting) [1] | Increased factor (enrichment factor/wild-type enrichment factor) [1] | enrichment factor, percentage after 2nd sorting/percentage after 1st sorting (Biotin-FcγRIIB) [ratio] | enrichment factor, percentage after 3rd sorting/percentage after 2nd sorting (Biotin-FcγRIIB) [ratio] | percentage after 1st sorting (Biotin-FcγRIIB) [%] | percentage after 2nd sorting (Biotin-FcγRIIB) [%] | percentage after 3rd sorting (Biotin-FcγRIIB) [%] | other results | Binder |
| --- | --- | --- | --- | --- | --- | --- | --- | --- |
| 22.1 | 38.4 |  |  |  |  |  |  | B1 |
| 24 | 41.8 |  |  |  |  |  |  | B2 |
| 19.2 | 33.4 |  |  |  |  |  |  | B3 |
| 1.79 | 3.5 |  |  |  |  |  |  | B4 |
| 1.48 | 2.57 |  |  |  |  |  |  | B5 |
| 32.1 | 56 |  |  |  |  |  |  | B6 |
| 4.31 | 7.52 |  |  |  |  |  |  | B7 |
| 8.64 | 15.1 |  |  |  |  |  |  | B8 |
| 42.2 | 73.5 |  |  |  |  |  |  | B9 |
| 8.63 | 15 |  |  |  |  |  |  | B10 |
| 3.83 | 6.68 |  |  |  |  |  |  | B11 |
|  |  | 44 | 5.95 | 0 | 0.21 | 1.25 |  | B12 |
|  |  | 39.1 | 5.02 | 0 | 0.07 | 0.33 |  | B13 |
|  |  | 47.4 | 5.76 | 0 | 0.03 | 0.19 |  | B14 |
|  |  | 73.6 | 7.21 | 0 | 0.13 | 0.9 | enrichment factor, percentage after 1st sorting/percentage before sorting (Biotin-FcγRIIB): 3.92 ratio; enrichment factor, percentage after 3rd sorting/percentage before sorting (Biotin-FcγRIIB): 2080 ratio; increased factor, mutant enrichment factor/wild-type enrichment factor (Biotin-FcγRIIB): 5550 ratio; percentage before sorting (Biotin-FcγRIIB): 0% | B15 |
|  |  | 53.3 | 5.53 | 0 | 0.22 | 1.2 | enrichment factor, percentage after 1st sorting/percentage before sorting (Biotin-FcγRIIB): 4.71 ratio; enrichment factor, percentage after 3rd sorting/percentage before sorting (Biotin-FcγRIIB): 1390 ratio; increased factor, mutant enrichment factor/wild-type enrichment factor (Biotin-FcγRIIB): 3700 ratio; percentage before sorting (Biotin-FcγRIIB): 0% | B16 |
|  |  | 64.8 | 6.03 | 0.06 | 4.14 | 25 | enrichment factor, percentage after 1st sorting/percentage before sorting (Biotin-FcγRIIB): 21.1 ratio; enrichment factor, percentage after 3rd sorting/percentage before sorting (Biotin-FcγRIIB): 8230 ratio; increased factor, mutant enrichment factor/wild-type enrichment factor (Biotin-FcγRIIB): 21900 ratio; percentage before sorting (Biotin-FcγRIIB): 0% | B17 |

Source: patent publication US20230220042A1 (SHANGHAI JIAO TONG UNIVERSITY SCHOOL OF MEDICINE, published 2023)
